Consider one protein from publication PMC3064727.

Substrate in this data set: CC(C)C[C@H](N)C(=O)O
Kind of data set: pyrophosphate release assay of A-domain adenylation. The data set is classed as biochemical, Aspergillus terreus. Particulars: holo C-A-T-R module.

B1: NRPS325 (Aspergillus terreus NIH2624) (protein)
chain: PTVERHVESQEPVVEAAVVASSSDSSSEGTMTPPSSRGINTPHTEITNLQLESVKSKACTAVQRREKMSFSQNRLWFPSAYLEQETPFNCTTSYTLTGPLDTARLENAFQRLIQRHESFRTAFYTDEVSGAAMQRVLASSPFQLRTMLGNKDDMQRVFRQIANYHFDLSVADTLVATLISHGPKDHTIVFGYHHIIMDGVSWQITLNDLARFYESDNPELPQLSQYIEFSVKQRQLVSSGAHDAKLSYWRKEFPSAPPLLPLFPFAKVGARKALTRYDTLDYIYDVDVSLVSKIKKASLAAKTTTFHFYLAAFVVLLNRFLEIDDVCLGIIDANRSDKTFLNTVGFLLDMLPLRLKVNKKERFVHTLRNTRAKAYNALEHSGVPLETILKELQVPTSATNTPLFQVLMNYRMGALRAPQMGDAKMNFLDYEDAKAPFDLAISIDEKDDGTGMLTFSMQDYMYDWEGAELLVKTYVHLLDTLATDSSQRINEVSLFDESLVNQSMVAGTGPVTGLDWAGTETISQRVDAMTAQRPDGVAVKDLNGKARTYAETQARVYALASSLQQAGITSGARVAVYCEPTVDTVALVLAIYRVGAAYIPLDVRNSHERLADVVRECKPTLILYHGATKHTLVDVAGDGQDALDIDTVPQSAAPIPDVSKLSDPAVILYTSGSTGKPKGIMLTHANLSLQFASISSALDLTDRDVVLQQSALGFDASLSQMFMALTNGGTLIHGSNRGDPVDLAALIEREGVTLTLIMISEMSALLQYGSDILSRCQSWRIALCGGEAFTVNLLRKFRDLNLPNLELYNAYGPTEASIMSSLGKVAYRRTDWGDGSVVPVGPPLPNYGVYVLDENFQPCPLGWPGELCICGPGVAEGYVGLPELTSSKFQPDQLRKPQGPSYDGWVRVYRTGDKARLLQDGSFVFLGRMDGDSQVKLRGIRIELNDISNSIVKTSKEAIVDAATIVKGTTSQTLVSFVVFAPAKVVDLERSNSSASAYLRQVIQSLPLPVYMRPAIAVPLERLPFTERGKLDTKALAAIPIQEDEETVNEELSETEQKLKQVWQDILSEQGMSLEIRRQSDFFSVGGNSLMLMRVRAKMLEVFGVSVPLAELFQASTLETLASRLDGNKTAESDNIVWNEETALDVSLPPAIAHPRDHPEKDLSVILTGSTGFLGRAIVRQLIADPRISTIHCLAVRPGRTLPEELVGSSKVIVYTGDLAAKRLGLSAPQAQEIFSSAAAIIHNGAEVSHMKSYHSLRPTNVDSTRQLVELALRSSIDSAVRTPAFHYVSTAGVGHLLGIPAFPEQSVSSSPPPVDGSDGYVAAKWASERILEQASERLGLPVFIHRPSNITGPDVGDRDIIHNVWRWSEVLRAVPDLVAAGAKGAFDFVGVETCAKGITDTLFVQASAGHLAYIHQSGENVIPVEEFGECLQRNGGADVELVPFDQWVDKAVQAGLDDLVASFLRGTKGAFQMPFLPKGLRQ
One may read the Km as the concentration of substrate that gives half-maximal velocity. The term kcat denotes the maximal rate divided by the concentration of active sites. In the case of B1, the Km was 310.0 ± 15.5 µM and the kcat is 0.287 ± 0.04 s⁻¹.
